Test results from patent US20190023792A1 (Innovent, published 2019).

Experiments:
cynoPD-1_Fc (cyno) = cynoPD-1_Fc (cyno) (UniProt B0LAJ3); test: BLI (ForteBio), Fab in solution, cynoPD-1_Fc on sensor tip
human PD-1 on cells [1] = target: T1, human PD-1 on cells (human, UniProt Q15116 25-288); test: flow cytometry blocking assay, 100 nM control IgG on CHO cells with human PD-1, then PD-L2-FITC (remaining ligand signal)
[2] = target: b-PD-1 monomer (human PD-1) (human) (UniProt Q15116); test: MSD solution equilibrium titration, avid KD
human PD-1 on cells [3] = target: T1, human PD-1 on cells; test: cell-based or functional assay
human PD-1 on cells [4] = target: T1, human PD-1 on cells; test: cell-based or functional assay; remark: listed apart in the source
human PD-1 on cells [5] = target: T1, human PD-1 on cells; test: flow cytometry on CHO cells with human PD-1, n=1
Description: Cells are then washed 3×, and are incubated with a secondary antibody (PE-labelled, at final concentration of 5 μg/ml) in PBS 1% BSA for 30 min on ice (protected from light). Cells are washed 3× and analyzed via flow cytometry. Flow cytometry is performed on an Accuri C6 system (BD Biosciences) and MFIs are calculated on the C6 software. EC50s are calculated on Graphpad software.

human PD-1_His = target: T2, human PD-1_His (human, UniProt Q15116 25-167, limits assumed); test: BLI (ForteBio), hPD-1_HIS in solution, IgG on sensor tip
T2 construct: also called hPD-1_HIS
Description: Briefly, ForteBio affinity measurements were performed by loading IgGs online onto AHQ sensors. Sensors were equilibrated off-line in assay buffer for 30 min and then monitored on-line for 60 seconds for baseline establishment. Sensors with loaded IgGs were exposed to 100 nM antigen for 5 min, afterwards they were transferred to assay buffer for 5 min for off-rate measurement. Kinetics was analyzed using the 1:1 binding model.

[6] = target: T3, b-PD-1 monomer (human PD-1) (human, UniProt Q15116 25-167, limits assumed, biotinylated (b-PD-1; detected with streptavidin), site not stated); test: MSD solution equilibrium titration, monovalent KD
T3 construct: The antigen used for the avid KD is not described separately; also called antigen
Description: (§1) Equilibrium affinity measurements are performed as previously described (Estep, P., et al., MAbs, 2013.5 (2): p. 270-8). Solution equilibrium titrations (SET) are performed in PBS+0.1% IgG-Free BSA (PBSF) where antigen (b-PD-1 monomer) is held constant at 10-100 pM and is incubated with 3-to 5-fold serial dilutions of Fab or mAbs starting at 5-100 nM (experimental condition is sample dependent). Antibodies diluted at 20 nM in PBS are coated onto standard bind MSD-ECL plates overnight at 4° C. or at room temperature for 30 min. Plates are blocked with BSA for 30 min whilst shaking at 700 rpm. Plates are then washed 3× with wash buffer (PBSF+0.05% Tween 20). SET samples are applied and incubated on the plates for 150 s with shaking at 700 rpm followed by one wash. Antigen captured on a plate is detected with 250 ng/mL sulfotag-labeled streptavidin in PBSF by incubation on the plate for 3 min. The plates are washed three times with wash buffer and are then read on the MSD Sector Imager 2400 instrument using 1× Read Buffer T with surfactant. The percent free antigen is plotted as a function of titrated antibody in Prism and fit to a quadratic equation to extract the KD. To improve throughput, liquid handling robots are used throughout MSD-SET experiments, including for SET sample preparation.

human PD-1 on cells [7] = target: T1, human PD-1 on cells; test: flow cytometry blocking assay, 100 nM antibody on CHO cells with human PD-1, then PD-L2-FITC (remaining ligand signal)
Description: CHO cells 0.2×10⁶ are incubated with the experimental antibody (100 nM) for 30 min in PBS 1% BSA on ice. […] Cells are washed 3× and analyzed via flow cytometry. Flow cytometry is performed on an Accuri C6 system (BD Biosciences) and MFIs are calculated on the C6 software. EC50 s are calculated on Graphpad software.

[8] = target: T3, b-PD-1 monomer (human PD-1); test: MSD solution equilibrium titration, avid KD
Description: as §1

human PD-1_Fc = target: T4, human PD-1_Fc (human, UniProt Q15116 25-167, limits assumed); test: BLI (ForteBio), Fab in solution, hPD-1_Fc on sensor tip
T4 construct: also called hPD-1_Fc

cynoPD-1_Fc = cynoPD-1_Fc (cyno, UniProt B0LAJ3 25-170); test: BLI (ForteBio), Fab in solution, cynoPD-1_Fc on sensor tip
Sequence of cynoPD-1_Fc (B0LAJ3 entry or part of it limits assumed): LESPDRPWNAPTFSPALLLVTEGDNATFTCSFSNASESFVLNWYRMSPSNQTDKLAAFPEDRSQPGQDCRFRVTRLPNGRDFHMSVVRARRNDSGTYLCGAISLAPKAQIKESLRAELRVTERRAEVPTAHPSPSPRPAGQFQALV

T1 sequence (Q15116 25-288 limits assumed): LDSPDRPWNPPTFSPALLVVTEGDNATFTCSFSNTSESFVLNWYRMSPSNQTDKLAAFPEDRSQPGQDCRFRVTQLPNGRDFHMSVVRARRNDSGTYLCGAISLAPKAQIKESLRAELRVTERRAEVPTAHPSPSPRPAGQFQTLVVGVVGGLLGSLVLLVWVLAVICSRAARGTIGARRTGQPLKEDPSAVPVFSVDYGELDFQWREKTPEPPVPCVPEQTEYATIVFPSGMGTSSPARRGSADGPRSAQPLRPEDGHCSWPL
T2 sequence (Q15116 25-167 limits assumed): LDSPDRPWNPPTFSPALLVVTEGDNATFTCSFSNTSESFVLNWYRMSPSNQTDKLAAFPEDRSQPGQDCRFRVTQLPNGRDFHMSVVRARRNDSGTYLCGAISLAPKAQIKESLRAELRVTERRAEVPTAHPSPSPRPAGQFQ
T4 sequence (Q15116 25-167 limits assumed): as above
T3 sequence (Q15116 25-167 limits assumed): as above
Sequence of cynoPD-1_Fc (cyno) (B0LAJ3 entry or part of it limits assumed): as the sequence (B0LAJ3 entry or part of it limits assumed) above
Sequence of b-PD-1 monomer (human PD-1) (human) (Q15116 25-167 limits assumed): as the sequence (Q15116 25-167 limits assumed) above

In the case of pembrolizumab Fab, the Kd (cynoPD-1_Fc (cyno)) is reported as 470 pM.

Molecule nivolumab Fab has a Kd (cynoPD-1_Fc (cyno)) of 1200 pM.

control IgG (antibody) was tested, and the MFI (PD-L2-FITC) (human PD-1 on cells [1]) was 183000 MFI.

Work on nivolumab (antibody) yielded a Kd [2] of 5 pM.

B1: Antibody B S228P IgG4 (xd-16 B) (antibody, V domains shown)
VH: QVQLVQSGAEVKKPGSSVKVSCKASGGTFSSTAISWVRQAPGQGLEWMGGIWPSFGTASYAQKFQGRVTITADESTSTAYMELSSLRSEDTAVYYCARAEYSSTGIFDYWGQGTLVTVSS
VL: DIQMTQSPSSVSASVGDRVTITCRASQGISSWLAWYQQKPGKAPKLLISAASSLQSGVPSRFSGSGSGTDFTLTISSLQPEDFATYYCQQANHLPFTFGGGTKVEIKR
notes: also called xd-16 B (IgG4 S228P); xd-16 B IgG4
For B1, the “IL-2 secretion fold change vs. IgG control, 0.01 nM IgG” value (human PD-1 on cells [3]) was 1.15 fold, the “IL-2 secretion fold change vs. IgG control, 0.1 nM IgG” value (human PD-1 on cells [3]) was 1.46 fold and the “IL-2 secretion fold change vs. IgG control, 1 nM IgG” value (human PD-1 on cells [3]) was 2.18 fold. For the same molecule, the “IL-2 secretion fold change vs. IgG control, 10 nM IgG” value (human PD-1 on cells [3]) was 2.39 fold, the “IL-2 secretion fold change vs. IgG control, 100 nM IgG” value (human PD-1 on cells [3]) was 2.37 fold and the “IFNg secretion fold change vs. IgG control, 0.01 nM IgG” value (human PD-1 on cells [4]) was 1.09 fold. For the same molecule, the “IFNg secretion fold change vs. IgG control, 0.1 nM IgG” value (human PD-1 on cells [4]) was 1.59 fold, the “IFNg secretion fold change vs. IgG control, 1 nM IgG” value (human PD-1 on cells [4]) was 2.15 fold and the “IFNg secretion fold change vs. IgG control, 10 nM IgG” value (human PD-1 on cells [4]) was 2.17 fold. For the same molecule, the “IFNg secretion fold change vs. IgG control, 100 nM IgG” value (human PD-1 on cells [4]) was 1.9 fold and the EC50 (human PD-1 on cells [5]) was 1460 pM.

B2: Antibody D S228P IgG4 (xd-16 D) (antibody, V domains shown)
VH: QVQLVQSGAEVKKPGSSVKVSCKASGGTFSSTAISWVRQAPGQGLEWMGGIWPSFDTANYAQKFRGRVTITADESTSTAYMELSSLRSEDTAVYYCARAEYSSTGTFDYWGQGTLVTVSS
VL: DIQMTQSPSSVSASVGDRVTITCRASQGISSWLAWYQQKPGKAPKLLISAASSLQSGVPSRFSGSGSGTDFTLTISSLQPEDFATYYCQQANHLPFTFGGGTKVEIKR
notes: also called xd-16 D (IgG4 S228P); xd-16 D IgG4
In the case of B2, the EC50 (human PD-1 on cells [5]) is reported as 1470 pM.

B3: xd-16 B, IgG1 format expressed in yeast (antibody, V domains shown)
VH: QVQLVQSGAEVKKPGSSVKVSCKASGGTFSSTAISWVRQAPGQGLEWMGGIWPSFGTASYAQKFQGRVTITADESTSTAYMELSSLRSEDTAVYYCARAEYSSTGIFDYWGQGTLVTVSS
VL: DIQMTQSPSSVSASVGDRVTITCRASQGISSWLAWYQQKPGKAPKLLISAASSLQSGVPSRFSGSGSGTDFTLTISSLQPEDFATYYCQQANHLPFTFGGGTKVEIK
notes: Tested as IgG1 expressed in yeast; also called Antibody B
B3 was tested, and the Kd (human PD-1_His) was 420 pM, the Kd [6] was 45 pM and the “MFI (PD-L2-FITC)” value (human PD-1 on cells [7]) was 26400 MFI. For the same molecule, the Kd [8] was roughly 0.9 pM.

B4: xd-16 C, IgG1 format expressed in yeast (antibody, V domains shown)
VH: QVQLVQSGAEVKKPGSSVKVSCKASGGTFSSTAISWVRQAPGQGLEWMGGIWPSFGTASYAQKFRGRVTITADESTSTAYMELSSLRSEDTAVYYCARAEYSSTGTFDYWGQGTLVTVSS
VL: DIQMTQSPSSVSASVGDRVTITCRASQGISSWLAWYQQKPGKAPKLLISAASSLQSGVPSRFSGSGSGTDFTLTISSLQPEDFATYYCQQANHLPFTFGGGTKVEIK
notes: Tested as IgG1 expressed in yeast; also called Antibody C
For B4, the Kd (human PD-1_His) was 380 pM, the Kd [6] was 50 pM and the “MFI (PD-L2-FITC)” value (human PD-1 on cells [7]) was 26500 MFI. The Kd [8] was 2.5 pM.

B5: xd-16 D, IgG1 format expressed in yeast (antibody, V domains shown)
VH: QVQLVQSGAEVKKPGSSVKVSCKASGGTFSSTAISWVRQAPGQGLEWMGGIWPSFDTANYAQKFRGRVTITADESTSTAYMELSSLRSEDTAVYYCARAEYSSTGTFDYWGQGTLVTVSS
VL: DIQMTQSPSSVSASVGDRVTITCRASQGISSWLAWYQQKPGKAPKLLISAASSLQSGVPSRFSGSGSGTDFTLTISSLQPEDFATYYCQQANHLPFTFGGGTKVEIK
notes: Tested as IgG1 expressed in yeast; also called Antibody D
B5 was tested, and the Kd (human PD-1_His) was 650 pM, the Kd [6] was 93 pM and the “MFI (PD-L2-FITC)” value (human PD-1 on cells [7]) was 40000 MFI. The Kd [8] was 1.3 pM.

B6: xd-16 E, IgG1 format expressed in yeast (antibody, V domains shown)
VH: QVQLVQSGAEVKKPGSSVKVSCKASGGTFSSTAISWVRQAPGQGLEWMGGIWPSFGTANYARKFQGRVTITADESTSTAYMELSSLRSEDTAVYYCARAEYSSTGIFDYWGQGTLVTVSS
VL: DIQMTQSPSSVSASVGDRVTITCRASQGISSWLAWYQQKPGKAPKLLISAASSLQSGVPSRFSGSGSGTDFTLTISSLQPEDFATYYCQQANHLPFTFGGGTKVEIK
notes: Tested as IgG1 expressed in yeast; also called Antibody E
For B6, the Kd (human PD-1_His) was 560 pM, the Kd [6] was 150 pM and the “MFI (PD-L2-FITC)” value (human PD-1 on cells [7]) was 40900 MFI. It also gave a Kd [8] of roughly 0.9 pM.

B7: xd-16 B, Fab format produced from IgG1 expressed in yeast (Fab, V domains shown)
VH: QVQLVQSGAEVKKPGSSVKVSCKASGGTFSSTAISWVRQAPGQGLEWMGGIWPSFGTASYAQKFQGRVTITADESTSTAYMELSSLRSEDTAVYYCARAEYSSTGIFDYWGQGTLVTVSS
VL: DIQMTQSPSSVSASVGDRVTITCRASQGISSWLAWYQQKPGKAPKLLISAASSLQSGVPSRFSGSGSGTDFTLTISSLQPEDFATYYCQQANHLPFTFGGGTKVEIK
notes: Fab produced from the yeast IgG1
B7 was tested, and the Kd (human PD-1_Fc) was 630 pM and the Kd (cynoPD-1_Fc) was 780 pM.

B8: xd-16 C, Fab format produced from IgG1 expressed in yeast (Fab, V domains shown)
VH: QVQLVQSGAEVKKPGSSVKVSCKASGGTFSSTAISWVRQAPGQGLEWMGGIWPSFGTASYAQKFRGRVTITADESTSTAYMELSSLRSEDTAVYYCARAEYSSTGTFDYWGQGTLVTVSS
VL: DIQMTQSPSSVSASVGDRVTITCRASQGISSWLAWYQQKPGKAPKLLISAASSLQSGVPSRFSGSGSGTDFTLTISSLQPEDFATYYCQQANHLPFTFGGGTKVEIK
notes: as for B7
B8 was tested, and the Kd (human PD-1_Fc) was 570 pM and the Kd (cynoPD-1_Fc) was 730 pM.

B9: xd-16 D, Fab format produced from IgG1 expressed in yeast (Fab, V domains shown)
VH: QVQLVQSGAEVKKPGSSVKVSCKASGGTFSSTAISWVRQAPGQGLEWMGGIWPSFDTANYAQKFRGRVTITADESTSTAYMELSSLRSEDTAVYYCARAEYSSTGTFDYWGQGTLVTVSS
VL: DIQMTQSPSSVSASVGDRVTITCRASQGISSWLAWYQQKPGKAPKLLISAASSLQSGVPSRFSGSGSGTDFTLTISSLQPEDFATYYCQQANHLPFTFGGGTKVEIK
notes: as for B7
Molecule B9 has a Kd (human PD-1_Fc) of 990 pM and a Kd (cynoPD-1_Fc) of 1200 pM.

B10: xd-16 E, Fab format produced from IgG1 expressed in yeast (Fab, V domains shown)
VH: QVQLVQSGAEVKKPGSSVKVSCKASGGTFSSTAISWVRQAPGQGLEWMGGIWPSFGTANYARKFQGRVTITADESTSTAYMELSSLRSEDTAVYYCARAEYSSTGIFDYWGQGTLVTVSS
VL: DIQMTQSPSSVSASVGDRVTITCRASQGISSWLAWYQQKPGKAPKLLISAASSLQSGVPSRFSGSGSGTDFTLTISSLQPEDFATYYCQQANHLPFTFGGGTKVEIK
notes: as for B7
Work on B10 yielded a Kd (human PD-1_Fc) of 860 pM and a Kd (cynoPD-1_Fc) of 1000 pM.
